Values quoted from earlier work in publication PMC7710720.

Target: Neurotensin (Homo sapiens) (UniProt P30990)

Kd: 6 nM
Substance: Neurotensin receptor 2 (from UniProt O95665)
